How the values were obtained:
PSD93 = assay: Yeast two-hybrid interaction with PSD93 second PDZ domain (amino acids 116-421); assay type: cell-based
Description: (§1) FIGS. 1A-1C. Cloning of the CAPON cDNA and distribution of CAPON mRNA. […] Yeast were transformed with the indicated Gal4 activation domain (AD) and Gal4 DNA-binding domain (BD) plasmids and grown on plates […] histidine. A typical filter lift is shown in which b-galactosidase activity was detected by the appearance of a blue precipitate. pAD-CAPON1, comprising the last 125 amino acids of CAPON, activates lacZ transcription in the presence of pBD-nNOS (2-377) but not with plasmids the first three PDZ domains of PSD95 (amino acids 20-364) or the second PDZ domain of PSD93 (amino acids 116-421).
(§2) We conducted a yeast two-hybrid screen employing the first 377 amino acids of nNOS, a region which includes the PDZ domain that comprises the first 100 amino acids of nNOS. […] The CAPON two-hybrid clones share a common carboxyl terminus and are predicted to translate into 125 and 327 amino acid peptides followed by a stop codon. […] Moreover, nNOS fails to interact with another control protein, c-fos. To obtain a full-length CAPON cDNA, we screened a rat brain cDNA library with the larger two-hybrid clone and isolated a 2100 bp cDNA which overlapped with the two-hybrid clone and was used to assemble a final 2820 bp cDNA (see Methods). The conceptual translation of this cDNA produces a 503 amino acid protein (FIG. 1B SEQ ID NO:4). […]

nNOS [1] = assay: Yeast two-hybrid interaction with nNOS (2-377); assay type: cell-based, rat
Description: as §1
We conducted a yeast two-hybrid screen employing the first 377 amino acids of nNOS, a region which includes the PDZ domain that comprises the first 100 amino acids of nNOS. […]
Two-hybrid screens and the construction of the parent vectors pPC86, containing the GAL4-activation domain, and pPC97, containing the GAL4-DNA binding domain, have been described (Jaffrey and Snyder, 1996). Plasmid pBD-NOS(2-377) was prepared by the insertion of an nNOS PCR product corresponding to amino acids 2-377 of rat nNOS into the Sal I and Bgl II sites of pPC97, resulting in an open reading frame encoding a GAL4 BD-NOS fusion protein (Jaffrey and Snyder, 1996). […]

PSD95 = assay: Yeast two-hybrid interaction with PSD95 PDZ domains (amino acids 20-364); assay type: cell-based
Description: as §1, §2

eNOS = assay: GST-fusion protein binding assay with lysates of transfected HEK293 cells, eNOS; conditions: Western blot
Procedure: (§3) (FIG. 2A) CAPON binds to nNOS, but not eNOS or iNOS. Bacterially expressed GST, GST-PIN, and GST-CAPON were bound to glutathione agarose and then incubated with lysates of HEK293 cells transfected with expression plasmids for the indicated isoforms of NOS. After extensive washing of the resins, bound NOS was detected with isoform specific antibodies. […] Input=10% of starting material applied to each resin.
(§4) To assess the specificity of interactions between CAPON and nNOS, we evaluated the binding of a GST-CAPON fusion protein, consisting of C-terminal 125 amino acids of CAPON, with nNOS, eNOS and inducible NOS (iNOS) (FIG. 2A). Lysates of HEK-293 cells transfected with expression plasmids for each of the three forms of NOS were incubated with GST-CAPON. […] No interactions are evident with the GST control. […]
(§5) The material remaining on the resin was eluted with SDS-PAGE sample buffer and nNOS was detected by immunoblot using antibodies specific to each NOS isoform (Transduction Labs). […]

nNOS [2] = molecular target: nNOS (Rattus norvegicus, UniProt P29476); assay: GST-fusion protein binding assay with lysates of transfected HEK293 cells, nNOS; set-up: expressed in transfected cells; host or cells: HEK293; conditions: Western blot
Sequence of nNOS (Rattus norvegicus, UniProt P29476) (P29476 whole entry, the tested form may be a part): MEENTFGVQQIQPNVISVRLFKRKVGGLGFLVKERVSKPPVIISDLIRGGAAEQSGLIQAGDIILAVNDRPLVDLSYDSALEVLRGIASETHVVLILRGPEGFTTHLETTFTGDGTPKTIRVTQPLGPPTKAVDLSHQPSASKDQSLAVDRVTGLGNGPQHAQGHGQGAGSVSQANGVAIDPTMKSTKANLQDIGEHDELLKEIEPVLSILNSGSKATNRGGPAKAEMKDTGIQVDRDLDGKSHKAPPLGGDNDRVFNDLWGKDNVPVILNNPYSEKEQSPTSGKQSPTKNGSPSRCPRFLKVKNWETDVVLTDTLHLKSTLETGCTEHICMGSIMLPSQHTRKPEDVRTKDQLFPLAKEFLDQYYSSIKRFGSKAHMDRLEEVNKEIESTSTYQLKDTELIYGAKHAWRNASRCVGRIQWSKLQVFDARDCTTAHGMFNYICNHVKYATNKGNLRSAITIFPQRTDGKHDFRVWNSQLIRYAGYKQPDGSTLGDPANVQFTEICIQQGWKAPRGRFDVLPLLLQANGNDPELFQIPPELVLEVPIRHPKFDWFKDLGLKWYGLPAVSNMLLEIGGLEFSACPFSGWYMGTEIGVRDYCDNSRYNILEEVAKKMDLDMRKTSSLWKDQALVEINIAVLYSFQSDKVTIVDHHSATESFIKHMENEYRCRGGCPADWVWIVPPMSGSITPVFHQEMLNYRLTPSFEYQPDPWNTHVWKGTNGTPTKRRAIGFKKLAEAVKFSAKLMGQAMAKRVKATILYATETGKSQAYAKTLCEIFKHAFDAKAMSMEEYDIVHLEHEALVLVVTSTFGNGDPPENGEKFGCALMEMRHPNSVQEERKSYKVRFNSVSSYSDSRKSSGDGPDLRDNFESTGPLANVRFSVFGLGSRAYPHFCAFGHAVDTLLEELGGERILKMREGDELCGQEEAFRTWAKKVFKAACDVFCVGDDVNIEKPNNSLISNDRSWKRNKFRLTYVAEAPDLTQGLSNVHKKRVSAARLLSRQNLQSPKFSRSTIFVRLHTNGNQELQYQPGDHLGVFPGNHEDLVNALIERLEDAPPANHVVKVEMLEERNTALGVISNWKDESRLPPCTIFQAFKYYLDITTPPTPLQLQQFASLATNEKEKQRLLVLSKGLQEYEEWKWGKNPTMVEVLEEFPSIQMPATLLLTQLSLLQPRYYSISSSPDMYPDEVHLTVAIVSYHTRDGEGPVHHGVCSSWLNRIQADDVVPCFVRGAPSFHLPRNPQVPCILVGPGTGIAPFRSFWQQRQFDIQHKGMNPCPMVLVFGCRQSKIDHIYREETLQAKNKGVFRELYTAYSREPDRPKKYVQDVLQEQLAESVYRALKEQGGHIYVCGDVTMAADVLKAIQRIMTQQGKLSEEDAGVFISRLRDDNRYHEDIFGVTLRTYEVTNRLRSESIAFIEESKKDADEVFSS
Procedure: as §3
(FIG. 4B) The C-terminal 13 amino acids of CAPON are sufficient for binding to nNOS. Various GST-CAPON fusion proteins were incubated with HEK293 lysates containing nNOS. A CAPON fusion protein comprising the last 100 amino acids binds nNOS, as do fusion proteins comprising the last 13 or 20 amino acids of CAPON.
as §4, §5

iNOS = assay: GST-fusion protein binding assay with lysates of transfected HEK293 cells, iNOS; conditions: Western blot
Procedure: as §3, §4, §5

Row | Molecule | interaction with PSD93 fragment in the two-hybrid system (PSD93) | interaction with nNOS in the two-hybrid system (nNOS [1]) | interaction with PSD95 fragment in the two-hybrid system (PSD95) | binding of eNOS to immobilized GST-fusion protein (eNOS) | binding of nNOS to immobilized GST-fusion protein (nNOS [2]) | binding of iNOS to immobilized GST-fusion protein (iNOS)
1 | 125 amino acid C-terminal fragment of CAPON: Gal4 activation domain fusion of the last 125 amino acids of CAPON (protein) SGALPVLCESTTPKPEDLHSPLLGAGLADFAHPVGSPLGRRDCLVKLECFRFLPAEDNQPMAQGEPLLGGLELIKFRESGIASEYESNTDESEERDSWSQEELPRLLNVLQRQELGDSLDDEIAV | failure of CAPON to interact | specifically interacts | failure of CAPON to interact |  |  | 
2 | GST-CAPON: GST fusion protein consisting of CAPON amino acids 379-503 (C-terminal 125 amino acids) (protein) SGALPVLCESTTPKPEDLHSPLLGAGLADFAHPVGSPLGRRDCLVKLECFRFLPAEDNQPMAQGEPLLGGLELIKFRESGIASEYESNTDESEERDSWSQEELPRLLNVLQRQELGDSLDDEIAV |  |  |  | do not interact | interacts strongly | do not interact

Source: patent publication US6103872A, “CAPON: a protein associated with neuronal nitric oxide synthase” (The Johns Hopkins University, priority 1998, dated 2000)
